According to patent US20260097113A1 (Pfizer, published 2026):

T1: RSV F protein of subtype A comprising a polypeptide of SEQ ID NO: 1 and a polypeptide of SEQ ID NO: 2 (RSV subtype A, UniProt P11209 137-513; P03420 26-109)
T1 construct: Stabilized prefusion F trimer made of three F2-F1 heterodimers; Produced recombinantly in CHO cells; also called RSV A; RSVA
T1 chain 1: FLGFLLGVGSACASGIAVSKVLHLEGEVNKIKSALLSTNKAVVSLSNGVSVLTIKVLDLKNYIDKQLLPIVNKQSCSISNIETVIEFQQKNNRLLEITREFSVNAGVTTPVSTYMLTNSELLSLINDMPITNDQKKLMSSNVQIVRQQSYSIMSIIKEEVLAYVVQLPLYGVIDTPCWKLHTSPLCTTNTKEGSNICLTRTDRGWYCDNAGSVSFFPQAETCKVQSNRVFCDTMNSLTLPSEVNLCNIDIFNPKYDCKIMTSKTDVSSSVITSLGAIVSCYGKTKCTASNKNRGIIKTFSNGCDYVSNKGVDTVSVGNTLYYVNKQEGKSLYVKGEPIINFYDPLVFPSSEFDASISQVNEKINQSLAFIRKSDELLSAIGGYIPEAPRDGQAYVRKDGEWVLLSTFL
T1 chain 2: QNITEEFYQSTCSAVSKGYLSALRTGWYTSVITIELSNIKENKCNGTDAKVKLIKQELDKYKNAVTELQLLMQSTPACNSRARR

T2: RSV F protein comprising a polypeptide of SEQ ID NO: 3 and a polypeptide of SEQ ID NO: 4 (RSV subtype B, UniProt O36634 137-513; O36634 26-109)
T2 construct: also called RSV B; RSVB
T2 chain 1: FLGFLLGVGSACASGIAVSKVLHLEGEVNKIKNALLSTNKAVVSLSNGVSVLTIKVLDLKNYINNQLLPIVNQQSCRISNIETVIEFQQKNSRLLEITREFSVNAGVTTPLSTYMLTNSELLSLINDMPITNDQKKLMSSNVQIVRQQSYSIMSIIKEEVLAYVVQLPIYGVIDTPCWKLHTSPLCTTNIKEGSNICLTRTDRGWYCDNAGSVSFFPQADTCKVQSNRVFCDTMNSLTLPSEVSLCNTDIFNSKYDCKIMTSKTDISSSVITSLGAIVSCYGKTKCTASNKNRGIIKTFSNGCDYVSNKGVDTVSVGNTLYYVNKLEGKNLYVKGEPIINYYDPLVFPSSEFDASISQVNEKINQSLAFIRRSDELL
T2 chain 2: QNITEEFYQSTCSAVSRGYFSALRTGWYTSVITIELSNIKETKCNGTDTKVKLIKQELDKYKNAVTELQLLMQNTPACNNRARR


Legend:
[1] = molecular target: RSV A + RSV B bivalent composition (RSV subtype A; RSV subtype B); test: AM14 Fab titration by SEC; Low-Fast cycle; 3 M 2-8°C
[2] = molecular target: RSV A + RSV B bivalent composition (RSV subtype A; RSV subtype B); test: AM14 Fab titration by SEC; Low-Fast cycle; 1 M 2-8°C (second value)
[3] = molecular target: RSV A + RSV B bivalent composition (RSV subtype A; RSV subtype B); test: AM14 Fab titration by SEC; High-Slow 1 cycle; 1 M 25°C (second value)
[4] = molecular target: RSV A + RSV B bivalent composition (RSV subtype A; RSV subtype B); test: AM14 Fab titration by SEC; composition of Table 14; Annealing Ramp Aggressive cycle
[5] = molecular target: T1, RSV F protein of subtype A comprising a …; test: AM14 ELISA; F3 (pH 8, 0 mM NaCl, 9% sucrose); T0
[6] = molecular target: T1, RSV F protein of subtype A comprising a …; test: AM14 ELISA; F11 (pH 7, 50 mM NaCl, 9.0% sucrose); T0
[7] = molecular target: T1, RSV F protein of subtype A comprising a …; test: AM14 ELISA; F6 (pH 7, 0 mM NaCl, 4.5% sucrose); 1 wk 5°C
[8] = molecular target: T1, RSV F protein of subtype A comprising a …; test: AM14 ELISA; F5 (pH 6, 100 mM NaCl, 9.0% sucrose); 1 wk 5°C
[9] = molecular target: T1, RSV F protein of subtype A comprising a …; test: AM14 ELISA; F10 (pH 7, 50 mM NaCl, 4.5% sucrose); 2 wk 25°C
[10] = molecular target: T1, RSV F protein of subtype A comprising a …; test: AM14 ELISA; F13 (pH 7, 100 mM NaCl, 4.5% sucrose); 1 wk 25°C
[11] = molecular target: T1, RSV F protein of subtype A comprising a …; test: AM14 ELISA; F17 (pH 7, 50 mM NaCl, 4.5% trehalose); 2 wk 5°C
[12] = molecular target: T1, RSV F protein of subtype A comprising a …; test: AM14 ELISA; F18 (pH 7, 50 mM NaCl, 3% sucrose + 3% mannitol); 1 wk 5°C
[13] = molecular target: T2, RSV F protein comprising a polypeptide …; test: AM14 prefusion assay relative to standard; RSV B 480 µg/mL, 2% sucrose + 4% mannitol; post-lyo 2 months at 5°C

Molecule	Prefusion Content (%) [1] [%]	Prefusion Content (%) [2] [%]	Prefusion Content (%) [3] [%]	Prefusion Content (%) [4] [%]	AM14 prefusion content (%), relative to standard [5] [%]	AM14 prefusion content (%), relative to standard [6] [%]	AM14 prefusion content (%), relative to standard [7] [%]	AM14 prefusion content (%), relative to standard [8] [%]	AM14 prefusion content (%), relative to standard [9] [%]	AM14 prefusion content (%), relative to standard [10] [%]	AM14 prefusion content (%), relative to standard [11] [%]	AM14 prefusion content (%), relative to standard [12] [%]	AM14 prefusion content (%), relative to standard [13] [%]
AM14 Fab	56	53	65	81	–	–	–	–	–	–	–	–	–
AM14 (trimeric prefusion specific antibody of the AM14 ELISA) (antibody, V domains shown, Antibody as used in the AM14 ELISA, detected with an HRP-labeled secondary antibody) VH: EVQLVESGGGVVQPGRSLRLSCAASGFSFSHYAMHWVRQAPGKGLEWVAVISYDGENTYYADSVKGRFSISRDNSKNTVSLQMNSLRPEDTALYYCARDRIVDDYYYYGMDVWGQGATVTVSS VL: DIQMTQSPSSLSASVGDRVTITCQASQDIKKYLNWYHQKPGKVPELLMHDASNLETGVPSRFSGRGSGTDFTLTISSLQPEDIGTYYCQQYDNLPPLTFGGGTKVEIKR	–	–	–	–	95	102	101	78	81	90	64	56	101
